Test results: patent US20030165897A1 (published 2003)

Target: T1, Patched (Ptc) (Drosophila, UniProt P18502 1-1286)
T1 construct: whole, on cells; Endogenous protein in vivo
T1 sequence (looked up): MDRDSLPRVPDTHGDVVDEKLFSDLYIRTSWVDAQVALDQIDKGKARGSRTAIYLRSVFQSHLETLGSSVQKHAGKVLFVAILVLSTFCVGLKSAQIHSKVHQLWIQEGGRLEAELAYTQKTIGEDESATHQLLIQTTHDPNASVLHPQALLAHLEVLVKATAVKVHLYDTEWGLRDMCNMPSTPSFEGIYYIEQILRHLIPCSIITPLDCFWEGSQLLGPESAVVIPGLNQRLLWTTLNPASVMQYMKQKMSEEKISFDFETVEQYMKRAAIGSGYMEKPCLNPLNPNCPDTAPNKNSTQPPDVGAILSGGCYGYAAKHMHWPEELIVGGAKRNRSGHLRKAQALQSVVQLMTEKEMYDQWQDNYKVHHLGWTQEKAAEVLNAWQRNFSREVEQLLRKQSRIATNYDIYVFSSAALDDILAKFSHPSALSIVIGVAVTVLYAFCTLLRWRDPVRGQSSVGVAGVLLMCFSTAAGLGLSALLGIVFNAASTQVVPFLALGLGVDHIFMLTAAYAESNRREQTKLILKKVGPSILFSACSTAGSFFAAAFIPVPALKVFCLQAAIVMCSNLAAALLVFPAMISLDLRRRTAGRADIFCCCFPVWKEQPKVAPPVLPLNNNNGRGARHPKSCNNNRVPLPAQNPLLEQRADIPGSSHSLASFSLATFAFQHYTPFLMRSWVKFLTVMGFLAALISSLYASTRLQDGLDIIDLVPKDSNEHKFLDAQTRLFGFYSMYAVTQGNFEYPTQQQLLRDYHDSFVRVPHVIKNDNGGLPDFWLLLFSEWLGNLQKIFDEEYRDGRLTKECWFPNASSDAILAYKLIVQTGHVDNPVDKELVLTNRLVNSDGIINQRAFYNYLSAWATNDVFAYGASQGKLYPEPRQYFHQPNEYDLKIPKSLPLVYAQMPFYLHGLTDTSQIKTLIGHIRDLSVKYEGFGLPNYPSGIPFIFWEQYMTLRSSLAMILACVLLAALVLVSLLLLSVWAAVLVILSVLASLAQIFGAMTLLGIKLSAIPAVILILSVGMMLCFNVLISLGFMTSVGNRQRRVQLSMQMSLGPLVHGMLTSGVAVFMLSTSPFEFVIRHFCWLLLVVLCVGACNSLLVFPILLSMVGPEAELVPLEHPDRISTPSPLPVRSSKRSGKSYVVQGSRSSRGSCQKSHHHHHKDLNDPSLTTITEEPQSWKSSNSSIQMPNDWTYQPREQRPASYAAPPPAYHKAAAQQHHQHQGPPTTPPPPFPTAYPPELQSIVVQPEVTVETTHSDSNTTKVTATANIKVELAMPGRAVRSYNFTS
Assay: in vivo immunostaining of wing imaginal discs (punctuate staining in anterior cells); hh-N^HA under en-Gal4 in hh ts2/ts2 animals at the non-permissive temperature
Description: Expression of Hh-Nu in P cells of the wing imaginal disc results in dpp-lacZ expression in the entire A compartment of the disc, and a consequent dramatic enlargement of the A compartment. Thus Hh-Nu appears to have a range of action at least five fold larger than that of wild-type Hh. However, since this and previous experiments have been performed in the presence of endogenous Hh, it could not be ruled out that the observed extension of Hh activity depends on, or is even mediated by, endogenous Hh-Np whose range might be expanded in the presence of Hh-Nu. To address this, we created a situation where Hh-Nu is the sole source of Hh in imaginal discs by expressing hh-N^HA in P cells under en-Ga14 in hh^{ts2/ts2} animals that were shifted to the non-permissive temperature during early larval stages. […] Thus Hh-Nu alone is able to associate with Ptc and signal in vivo. The cholesterol anchor of Hh appears to be required for the sequestration of Hh by Ptc, since untethered Hh is seemingly unrestricted in its range. We cannot currently rule out the possibility that Hh-Nu is also, at least partially, sequestered by Ptc but that extracellular Hh-Nu levels are abnormally high and saturate the capacity of Ptc.
hh-temperature sensitive animals were generated using the hh^ts2 allel (Ma et al., 1993) balanced over the TM6b[Tb]balancer. […]

binding result: binds
B1: Hh-Nu (cholesterol-free N-terminal portion of Drosophila Hedgehog, product of the hh-N^HA transgene) (ligand, not shown: small tags and cut ends)
chain: not shown
modifications: no C-terminal cholesterol (cholesterol-free)
notes: Expressed in P cells of wing imaginal discs under en-Gal4 in hh ts2/ts2 animals; also called unmodified Hh-Nu; untethered Hh
